Reference: a protein production outcome set (Wang et al. 2014)

Assay: label from the status in PepcDB records
With “MTSGATRYRLSCSLRGHELDVRGLVCCAYPPGAFVSVSRDRTTRLWAPDSPNRSFTEMHCMSGHSNFVSCVCIIPSSDIYPHGLIATGGNDHNICIFSLDSPMPLYILKGHKNTVCSLSSGKFGTLLSGSWDTTAKVWLNDKCMMTLQGHTAAVWAVKILPEQGLMLTGSAGKTVKLWKAGRCERTFSGHEDCVRGLAILSETEFLSCANDASIRRWQITGECLEVYYGHTNYIYSISVFPNCRDFVTTAEDRSLRIWKHGECAQTIRLPAQSIWCCCVLDNGDIVVGASDGIIRVFTESEDRTASAEEIKAFEKELSHATIDSKTGDLGDINAEQLPGREHLNEPGTREGQTRLIRDGEKVEAYQWSVSEGRWIKIGDVVGSSGANQQTSGKVLYEGKEFDYVFSIDVNEGGPSYKLPYNTSDDPWLTAYNFLQKNDLNPMFLDQVAKFIIDNTKGQMLGLGNPSFSDPFTGGGRYVPGSSGSSNTLPTADPFTGAGRYVPGSASMGTTMAGVDPFTGNSAYRSAASKTMNIYFPKKEAVTFDQANPTQILGKLKELNGTAPEEKKLTEDDLILLEKILSLICNSSSEKPTVQQLQILWKAINCPEDIVFPALDILRLSIKHPSVNENFCNEKEGAQFSSHLINLLNPKGKPANQLLALRTFCNCFVGQAGQKLMMSQRESLMSHAIELKSGSNKNIHIALATLALNYSVCFHKDHNIEGKAQCLSLISTILEVVQDLEATFRLLVALGTLISDDSNAVQLAKSLGVDSQIKKYSSVSEPAKVSECCRFILNLL” the protein production was “failed”. In the case of “MTSHHAIEVTKTVLEVADVAWTAVETYHHHHHHQDENHESTNPISDPRDRELEALRQENRRLRTLLESNLKLFETLAESAAFSHDCPSDLYARLVTMVTSRDFLARLENLRQALSNGTQNQFPFKEPTEDDVKTVEVLIEMDHQEPSWWVLVTDDMVPSNVEEQSAIDNEHYIVVNEEHVIDAVAHFLAKCIMSNPKAKNLKPEELQKLLVQEVTALSKVGKVVDIWHAGKMFYTLSTWGLAFGGLYQARGVLKIAAKGVHATSKVVLRAL”, the protein production is reported as “failed”. For “MTSIWGQIQHILQNTLAPGLFKVWISPLAGEVDGSTLRVEAPNEFVAGWVRDRLFEDIRTAACGVIGDTVEVVVTAGAPAAAAPRPVLAPRPAVVEVVPTAAPVPSVVPAVEARPSGHAPRRLSAETQQAQEQLGLPLDWAPVPQSRTNWRFSFDDFIVGPNNELACAAARGMCRDGLMTDTLFLSSGPGLGKTHLLHAVGRSLCESSNRSNPNVAYLTAEEFASRLIAALKARDVERFKARYRDVDVLLLEDVHFLQGKEKMQDEVLATVKALQSRGSRIVFSSSFAARDLKNVDNQLVSRFCSGFLAGIERPDFDTRRRILREKARIYQVMLPDNVTDLLAERISTDVRQIESCLHNLILKAKLLNRQISLEMAFEIIGNYAQAETQLDFEGIVRMVCEGFGLSPEQLNSRSRKREYVVARNAAYLLARKHTDLSLKEIGDRFNRRHSTVLKGITALEREMNRETPLGRQVANTISLLERNGRITHARH”, the protein production was “failed”. With “MTSKSRPNRDLAGRLALAAQLALVLVLAAAPELALAQSTMPGQQLLTFAKNFIIAPIALFAIVISGVAAFIRPDLIKTTGYIAIIAVILYFLLANADRLMQAIRAG” the protein production was “failed”. For “MTSNERILQPFTLPNGTELKNRLLMAPMTTCTGYFDGTVTSELVEYYRARAGSIGTIIVECCFIDDYGLAFPGAIGIDNDEKIAGLAKIAEAIKAEGSKAILQIYHGGRMVDPQLIGGRQPVAPSAIAAPREGAAMPRALSGEEVEGMIAKFGDGVRRAILAGFDGVEIHGANTYLIQQFYSPNSNQRDDEWGGSRDNRARFPLAVLDITHKMARQYADDAFIIGYRFSPEEMEVPGIRFDDTMYLLEKLAARGVDYLHFSVGATLRPSIVDTSDATPLIEKYCAMRSDTLAQVPVMGVGGVVNAADAEQGLDHGYDLIAVGRACIAYPDWASRIAAGEELELFIDSTQREALHIPEPLWRFSLVEAMIRDMSMGDAKFKPGMFVETVHDDANELVINVSLENDHIADIELAASPVQTVEFTTSFEEIRERILTANTPHVDAISGATSQSEAVKKAVAKAMLKSSKALAAEEGGNDAAPKSYDVVVVGSGGAGLAAAIQAHDEGASVLIVEKMPTIGGNTIKASAGMNAAETRFQRVKGIEDSKELFYQETLKGGHNKNNPQLLRRFVENAPQAIEWLADRGIMLNDITTTGGMSIDRTHRPRDGSAVGGYLISGLVRNITKRGIDVLLDTSVEEILMRGDEVSGVRLINDEKEVIEVQTKSIVVATGGFSANSAMVVKYRPDLEGFVTTNHKGATGSGIALLERIGAGTVDMGEIQIHPTVEQQTSYLISESIRGGGAILVNQQGNRFFNEMETRDKVSAAIIALPEHYACIVFDEHVRAKNKAADEYIAKGFVTSASSPRELAEKLGMDYHAFLATLECYNGAVEKQHDEQFGRTTALRAPINEGPFHAIRIAPGVHHTMGGVTINTDGEVLNVAQQPICGAYAAGEVVGGIHGGNRIGGNAVADIIIFGTLAGHQAAKRARG”, the protein production was “failed”. For “MTSSEQPRTYWLEHAWLGTHVEPGVALDVRDGRITAVNQGVATPPPGAGILRGLTLPGLANAHSHAFHRALRGTVQVGSGTFWTWREVMYSVADRLTPDTYHALARAVYAEMALAGITAVGEFHYVHHAPGGTPYADPNAMGEALIEAAAEAGVRITLLDTCYLSSGFGEPPNTHQRRFSDGTADAWAERCSVLKERDHARIGAAIHSVRAVPADQLATVAQWAEERRAPLHVHLSEQTAENDACRQAHGRTPTRLLADHGVLGARTTGVHNTHLTDEDIALLGGSRTGTCMCLTTERDLADGIGPAAALQRAGSPLSLGSDSHAVVDLLEEARAMELNERLRTRARGHWTAAALLRAATADGHAALGWDDTGRIEAGARADLATIALDSVRTAGPLPRLGAETAVFAATAADVRHTVVGGRHVVRDGAHTLVPDVPQALARAVEALRA”, the protein production was “failed”. In the case of “MTSSMLFNITTFTYLVSMLAFFAFLASRNRHLGMAGSLISYFGFFVHTAAILLRWKESYDIGHGHAPLSNLYESVVFFAWTIVLIFGIIDLKYKYRVVGAFVMPFALLGMAWAQLTLNSGIEPLVPALQSNWLLYHVVTCFLGYAAFAVACGISIMYLIKAGKEDSSQSAQAGGIISMFPPTKILDDLNYKAIMIGFPLLTLGIITGAAWANYAWGTYWSWDPKETWSLIVWFVYAAFLHARFTRGWVGKRAAILSIVGFAATIFCYLGVNLLLSGLHSYGGG”, the protein production is reported as “failed”. For “MTSSSQRLALLEAVVEQSFNAVLITDANLANGGPLIVYVNPAFCTMTGYTAEELIGLSPRILQGADTDPQVIERLRQCLSERLFFEGSTVNYRADGSPYVVEWKITPVRDDAGQVCNFVSVQQNISPRIRAEREQHLLAQALNAAFDPIIITDRNSTIVFANEAFQLITGYSAPEIIGQNPRMLRSGKHDALFYAQFNESLASGEPFRTTFINKRKDGSLFYAEHSISPLRNVEGAMTHYVSISQDVTTRLGREQKLLEIAHSDTLTGLDNRRAAEHTLERLINTARMAGKPFSFIICDIDHFKSVNDRYGHPAGDSVLKSVAAILKHRIRAFDVAARWGGEEFLILVPDSSLKQAAELAERVRKGVESLEIPEAGPVTISLGVAELSPGETAASLIQRADKVLYQAKRLGRNRVEIAQADDPAY”, the protein production was “failed”. In the case of “MTSTFLLEIGTEELPADFARQALDQLQDRVGRDLLDSRLDHKSVQVLGTPRRLVVRVHGLADRQPDLEEDQKGPPIAQAFKDGVPGPAAIGFSKRCGVDPSQLEVRNTPKGECVFASVRTEGQNSVDLLQELIPAWINGLQGRRFMRWGTGSQRFSRPIRWLLALKGVDLIPVEIPGADPPVRSDRFSRGHRLHGDQPLPIDTAEDYDDTLAAAGVIVDRQQRAALIRSQLDASADQLNGLPDCPESLFEELVDLVESPRLLQGSIAERFLSLPPEVIITVMQAHQRYVPLKVPEVTPDPLQLEATVVLQRDFLLVGNGLEAADALITRGNERVLAARLADAEFFLSVDRRQPSSARREALDRVTFAEGLGSLLDRCQRIERTARQLVDQLNLDAHQGEAAIRAAHFCKHDLVSQMVGEFPELQGLMGGKYLLEEGEPTEVALAVVEHYLPRGAGDQLPSSDAGAVVALAERLELLLSIFAKGERPSGSSDPYALRRAGNGLLQIVWDRGWRLDLSRFLGSAVEDWAALFPEFAIDSSALHQDLCQLLRQRIVSQLEDEGFVPDLVQAVSAESVAT”, the protein production is reported as “failed”. For “MTSTSITAVEYQSKRLESRLLKETREYVIALPEGYAQSLEAYPVVYLLDGEDQFDHMASLLQFLSQGTMPQIPKVIIVGIHNTNRMRDYTPTHTLVLPSGNKGNPQYQHTGGAGRFLDFIEKELAPSIESQLRTNGINVLVGHSFGGLVAMEALRTDRPLFSAYLALDTSLWFDSPHYLTLLEERVVKGDFKQKQLFMAIANNPLSPGFGVSSYHKDLNLAFADKLTKLAPKGLGFMAKYYPEETHQSVSHIGLYDGIRHLFKDFAIDIYSDSFSKQQVIDQYGVLSERFGHKVTPSQQYLEQLIQYSDRQQLTERKQMLEGLRQHFAKD”, the protein production was “not failed”.
